From paper PMC12774657, “Multimodal bHLH-PAS DNA binding controls specificity and drives obesity”

Biological target: SIM1 bHLH-PASA-PASB;ARNT2 bHLH-PASA-PASB (;, UniProt P81133;Q9HBZ2 1-348;1-455, |)
Test: EMSA; preferred over HIF2a probe; EMSA: 10 nM probe, 20 mM Tris pH 8.0, 250 mM NaCl, 16 ug/ml salmon sperm ssDNA, 30 ug/ml BSA, 1.25 mM MgCl2, 6% glycerol, 10 mM DTT, room temperature 30 min, 5-7% native PAGE
Settings: protein: recombinant;recombinant; tags: 6xHis-TEV, tag removed;untagged; copies: 1;1; label: FAM (upper strand); blunt

Sequence of SIM1 bHLH-PASA-PASB;ARNT2 bHLH-PASA-PASB (P81133 1-348, chain 1 of 2): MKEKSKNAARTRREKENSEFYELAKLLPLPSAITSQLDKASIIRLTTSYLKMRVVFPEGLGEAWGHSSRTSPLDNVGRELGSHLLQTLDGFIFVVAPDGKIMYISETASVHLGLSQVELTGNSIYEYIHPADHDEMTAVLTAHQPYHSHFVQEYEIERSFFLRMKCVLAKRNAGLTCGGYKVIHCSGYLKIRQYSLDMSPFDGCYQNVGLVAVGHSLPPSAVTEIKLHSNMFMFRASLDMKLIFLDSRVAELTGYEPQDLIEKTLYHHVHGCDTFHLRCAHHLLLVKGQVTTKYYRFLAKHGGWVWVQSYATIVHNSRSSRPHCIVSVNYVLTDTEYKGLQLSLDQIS
Sequence of SIM1 bHLH-PASA-PASB;ARNT2 bHLH-PASA-PASB (Q9HBZ2 1-455, chain 2 of 2): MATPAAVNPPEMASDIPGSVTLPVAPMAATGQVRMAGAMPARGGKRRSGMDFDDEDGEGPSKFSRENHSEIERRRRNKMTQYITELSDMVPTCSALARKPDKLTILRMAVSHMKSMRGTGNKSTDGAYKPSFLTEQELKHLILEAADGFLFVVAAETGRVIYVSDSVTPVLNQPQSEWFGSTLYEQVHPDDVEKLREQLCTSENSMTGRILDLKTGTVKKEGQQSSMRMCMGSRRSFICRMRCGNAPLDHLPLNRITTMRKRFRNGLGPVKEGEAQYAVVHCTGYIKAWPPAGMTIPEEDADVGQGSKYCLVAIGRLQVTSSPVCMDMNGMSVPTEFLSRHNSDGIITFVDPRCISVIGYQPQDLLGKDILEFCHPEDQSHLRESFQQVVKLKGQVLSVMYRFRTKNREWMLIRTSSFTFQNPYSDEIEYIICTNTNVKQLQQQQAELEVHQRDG

B1: SRE 22mer (top SIM1/ARNT2 probe) (dsDNA)
DNA 1: AAAAGGTACGTGACCAAAAAGA
DNA 2: TCTTTTTGGTCACGTACCTTTT
  binding result: binds
